test: soluble fraction after stress (log2 fold change); higher = more stays soluble; pooled small domains, quantitative proteomics; details: stress: 50 degC
Summary of the method: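 Pooled custom libraries of small protein domains were each held under stress at 50°C. The read-out, high-throughput quantitative proteomics, tracked how much of each protein stayed soluble. This is reported as a base-two log fold change used to indicate aggregation propensity. Higher values mean more protein remains in solution.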

| Sequence | soluble fraction (log2) |
| --- | --- |
| HMGNLPPAVINARIKVSPAGRGVFVGFDKGSTSTEAKYADAIRGYLPNIEFNKDDHESVVTVPFNFR | -0.032 |
| HMDPYLSGLLQKLAETDKKISFTRLRSEDLDGESREAIYEFIEKYSGRFGVRWLLNEFGLSPSVYYNYLHS | -0.741 |
| HMNEMIFNQKKIGQFFMNPETNSPMIYPLELGHKMKIIELKNGWYNVTDEKTGLNGWVKEEDFGVTKPLDS | -0.205 |
| HMDMDRRALLLALINDRYHASVAEFARAINKAPAQVHQWLSGNRALGNAGARDIEIRLNLAQGYFDH | -1.91 |
| HMGMSQQKQSSTVRIIMQDISDANEGLMKMSQIIDAALAEGISETIVRNAISNLHRGGTIYESQTGTYQW | -0.359 |
| HMHFENEETFVLPLVREGFSEQQQLEMVDRLLFDANTDNPRWIIDWMASELPSTQRELLLDLEKRLAEVRS | -0.117 |
| HMEDNLMIVVQVNGKKRSEIKVSIDASEDQIKQTALAEPNVQKFVEGHTIRKMILVPSKLLNIVV | -0.0375 |
| HMNQRQLQIKQMLDVAQEVFLKQLKTVFPDVSEMTIRRDLILLEDMGYAVRTHGGAVSINRF | -2.14 |
| HMDAEKHIVTPEAGLRLDRALTDALPNLSRSRVKQLINEGLVTTENKTITAPSYRVKYGDSFEISIPPPT | -0.0636 |
| HMVVRKHDRYYTPEHRKLLMDTYERTNKYPTKQDMSELAKIIGVLPIKILWWYTHRRRQDRRKGEESSSP | -0.0096 |
| HMSDDSTIVELLASSLRRDIAFGTLLPDQKLKLNELRTRYGGSIHSMRETLRILSAEGLVEATAQRGFRVT | -0.0813 |
| HMHVGVWIMNEKGEILLEQRASNKKVDPNKWARIGGHVDAGEKPIQAIQREILEEIGVKIPLENFIVLET | -0.335 |
| HMTTVSINTTGIITASTIRASSALYPPLYTTVQRDAGTFSAGAIIFNSTTSKLEFYDGTTWQSLPG | -0.106 |
| HMSNHYETLGVPRDASQEDIKRAYRRLARKLHPDVAGPGKAEEFKAVNEAYAVLSDEESRRMYDLGGDDAL | 0.146 |
| HMSDFEASDPALLREGMRVQHLNFGKGTVITIEGAGANKKASVAFDGVGTKQLMLRFARLKIIYE | -0.146 |
| HMSGALDTVVGIRMLKLLSTPIEKSKAFQVGIINKDGKKLRDPTSGERQHYTFLNRFVFKVQYALMRS | -0.211 |
| HMATVIDVATTLGRPITDPDEQRQVLNWIGKTERIISARLGDLAALDRQILADVISEVVARRARN | -0.4 |
| HMSATPQRMTIIDALDSSGKNLSAYELLDLLNDKGQLFNISTIYRVLDFWIEMGIVHKINSSNTYL | 0.125 |
| HMPNIHVVFAEEWTDRRLDKVLSEYFDGYSRSFIKKLFDDGLILVNSKAVKPSYKVRAGDMIDISVPDPV | -0.646 |
| HMKRNLVSVLDHIVGIGPKRRQSLRTHFGSLEKIKEASVEELAAAPGMNRTSAEAVRHFFDAQQELRGK | 0.537 |
| HMTLGQHIQALRKEAGYSQEALGEALGVTRQSISKWESDQAIPEVDKLVTLSRLFQVPVGVLLQVEQP | -0.16 |
| HMKSPVKLILRGSIYHIKISAVVNGQRIFVRESSHTTDKREAEQYANKRFAQLVEETEFRTN | -1.11 |
| HMENTGFKDKKGNYIFDGDIVKDILGNIMKVEFKHFKWQLIPLNKTAFNMPMVDWLDLETETLNAEIIGN | -2.13 |
| HMTFGEMLQYTNRLKEILESNAPQSIKDRRLANLMTDLEQAYGIPILRDQEFEKENPFLMQLYRTIS | -2.06 |
| HMTTVTVGSKVRVKAGATFSDGAKPFAEVYNTVYDVQLLSHNGKEARIGIGDQWTGWIYISDLYLANQPAP | -0.102 |
| HMNHHTEQQLKALSNKVKDHRMRMRLLAVAHFKAGKNKADVARTLNVSRRMVNEWVANYFKGGVSALES | -3.6 |
| HMSQVSTKYINVSSAYVRSKPSKDGEIVTSLIKNTDVTVTGENGDWYKIKFNNYEGYIFKELLSDSKLEE | 0.15 |
| HMVIVMRKDADAASIEKVVSEVKSRGFMPHVSEGESRTLIGAIGPAPTEELREHFAGLAGVETVVRITK | 0.113 |
| HMANSDEEVLNKISTKAPTFNELINKIKEFDDTKEINDIWLDVYRYYITDEEYKEIAKKVITGLTYTNQ | -0.177 |
| HMTRVANIPYSEFLKLVETDKINDVSMVGKTISGHLDDGTKFSTYTPPNDPNLIDKLSKHNVIIKAGPE | 0.0971 |

From the domain aggregation screens of Martell et al. (2025)
